Tests used:
[1] = target: trypsin-treated human erythrocytes; experiment: region II on COS cells, erythrocyte-binding assay
[2] = target: Gerbich human erythrocytes (exon 3 deletion of glycophorin C/D: shortened glycophorin C, absent glycophorin D); experiment: region II on COS cells, erythrocyte-binding assay
[3] = target: normal human erythrocytes (untreated); experiment: region II on COS cells, erythrocyte-binding assay
[4] = test system: binding of BAEBL to human erythrocytes; experiment: Competitive inhibition assay; conditions: 1 μM, 10 μM, 100 μM, and 1000 μM; preincubated 1 hr at room temperature
Experimental: To determine the specificity of binding, we studied binding to neuraminidase-and trypsin-treated human erythrocytes and human erythrocytes with various genetically modified blood groups. […] To determine whether BAEBL was binding to the carbohydrates on the erythrocyte receptor, we performed competitive inhibition with Neu5Ac(α2-3) lactosialic and Neu5Ac(α2-6)lactosialic acid at 1 μM, 10 μM, 100 μM, and 1000 μM.
An inhibition assay was conducted in the presence of Neu5Ac(α2-3) lactosialic acid or Neu5Ac(α2-6) lactosialic acid (Sigma). Metabolically labeled parasite supernatant (50 μl) was preincubated with 1, 10, 100, or 1000 μM in 15 μl of the aforementioned carbohydrates for 1 hr at room temperature. Packed erythrocytes (50 μl) were added to the mixture. The erythrocyte binding assay was conducted as described above. Immunolocalization of BAEBL.

[5] = target: neuraminidase-treated normal human erythrocytes; experiment: region II on COS cells, erythrocyte-binding assay
human erythrocytes = experiment: Modified erythrocyte binding assay: absorption/elution of metabolically labeled parasite proteins followed by immunoprecipitation
Text: We have developed a new assay for measuring binding of BAEBL to erythrocytes. Previously, EBA-175 was identified in parasite proteins bound and eluted from human erythrocytes. Its identification was based on the fact that it was the most abundant and the highest molecular weight protein eluted from these erythrocytes. Lower molecular weight proteins may be proteolytic fragments of EBA-175 or products of different genes. To positively identify BAEBL, we immunoprecipitated BAEBL from proteins eluted from erythrocytes with anti-region II and anti-region VI.
We also modified the protocol in that we identified proteins removed from the supernatant by erythrocyte absorption. We determined the different quantities of erythrocytes required to remove BAEBL from the parasite supernatant. […] The protein was largely removed by absorbing twice with 50 μl of packed erythrocytes for some culture supernatants and by only one absorbtion with 50 μl for other supernatants. Therefore, on some samples, we absorbed with 25 μl, 50 μl once, and 50 μl twice for comparison between normal erythrocytes and mutant erythrocytes or enzyme-treated erythrocytes. The protein was also eluted from the first 50 μl of packed erythrocytes used for absorption.
Blood was collected in 10% citrate-phosphate-dextrose (vol/vol) and stored for up to 4 weeks at 4° C. At the time of study, the erythrocytes were washed three times in incomplete media (RPMI-1640; Life Technologies, Rockville, Md.) with 25 mM HEPES and 0.36 mM hypoxanthine (Sigma, St. Louis, Mo.). For neuraminidase treatment, 5.5 ml of a 5% (vol/vol) suspension of the washed human erythrocytes in incomplete media were incubated twice with 3 milliunits of neuraminidase (Vibrio cholerae; CalBiochem, La Jolla, Calif.) for 2 hr at 37° C. each time. For trypsin treatment, washed human erythrocytes were incubated with 1 mg/ml of tosyl-phenylalanine-chloromethyl-ketone-treated trypsin (Sigma) for 2 hr at 37° C. After trypsin treatment, the cells were washed once in incomplete medium and incubated with 2 mg/ml soybean trypsin inhibitor (Sigma) for 10 min at room temperature. The cells were washed twice before use in a study.
The glycophorin A and glycophorin B null erythrocytes [En(a-) and S-s-U-, respectively and the glycophorin D null/glycophorin C modified erythrocytes (Gerbich cells) were frozen within a few days of receipt and thawed by the Red Cross method (Mallory, D. ed. 1993 Immunohematology Methods and Procedures American Red Cross, National Reference Laboratory, Rockville, Md., pp. 125-1-125-2). Blood from a Gerbich donor was collected in 10% (vol/vol) anticoagulant citrate-phosphate-dextrose.
Other glycophorin C/D mutant cells (Leach, Gerbich, and Yus cells) had been stored in liquid nitrogen as frozen pellets (Judd, W. J. 1994 in: Methods in Immunohematology Montgomery Scientific Publications Durham, N.C., pp. 188-190) and thawed directly into PBS at 37° C.
Soluble, metabolically labeled parasite proteins were obtained from culture supernatant of schizont-infected erythrocytes that released merozoites in the absence of uninfected erythrocytes. The parasites were left to lyse and release proteins into the culture supernatant. The Dd2/Nm clone of P. falciparum was cultured as previously described (Kaneko, O. et al. 2000 Mol Biochem Parasitol 110: […]) with the following exceptions. Schizont-infected erythrocytes (5×10^7 per ml of culture medium) were used during the metabolic labeling. The culture supernatant was ultracentrifuged in a Beckman Optima TLX Ultracentrifuge (Beckman, Fullerton, Calif.) at 40,000 rpm (98,600×g) for 10 min at 4° C. before storage at −70° C.
Proteins in the supernatant and in the diluted eluate were immunoprecipitated as previously described (Kaneko, O. et al. 2000 Mol Biochem Parasitol 110: 135-146) with the following exceptions. […]

[6] = test system: RBC (normal, trypsin- or neuraminidase-treated, Gerbich-negative); experiment: Erythrocyte-binding assay with BAEBL region II variants expressed on the surface of COS cells; type: cell-based, human

BAEBL region II variant ISKK, expressed on the surface of COS cells (ligand)
percentage of binding to normal, untreated RBC [1]: 92%
percentage of binding to normal, untreated RBC [2]: 96%
COS cells with five or more attached RBC, total per coverslip (COS cells per coverslip) [3]: 59

CC(=O)NC1C(O)CC(OCC2OC(OC3C(CO)OC(O)C(O)C3O)C(O)C(O)C2O)(C(=O)O)OC1C(O)C(O)CO (stereo not drawn) [Neu5Ac(α2-6) lactosialic acid]
Inhibition of the binding of BAEBL to human erythrocytes [4]: neither Neu5Ac(α2-3) nor Neu5Ac(α2-6) lactosialic acid inhibited the binding

BAEBL region II variant VSTK, expressed on the surface of COS cells (ligand)
percentage of binding to normal, untreated RBC [2]: 0.9%
COS cells with five or more attached RBC, total per coverslip (COS cells per coverslip) [3]: 65

BAEBL region II variant VSKK, expressed on the surface of COS cells (ligand)
percentage of binding to normal, untreated RBC [5]: 90%
percentage of binding to normal, untreated RBC [2]: 112%
COS cells with five or more attached RBC, total per coverslip (COS cells per coverslip) [3]: 58

BAEBL region II variant INRE, expressed on the surface of COS cells (ligand)
percentage of binding to normal, untreated RBC [1]: 114%
percentage of binding to normal, untreated RBC [5]: 110%
percentage of binding to normal, untreated RBC [2]: 100%
COS cells with five or more attached RBC, total per coverslip (COS cells per coverslip) [3]: 67

CC(=O)NC1C(O)CC(OC2C(O)C(CO)OC(OC3C(CO)OC(O)C(O)C3O)C2O)(C(=O)O)OC1C(O)C(O)CO (stereo not drawn) [Neu5Ac(α2-3) lactosialic acid]
Inhibition of the binding of BAEBL to human erythrocytes [4]: neither Neu5Ac(α2-3) nor Neu5Ac(α2-6) lactosialic acid inhibited the binding

B1: EBA-175: P. falciparum receptor that binds sialic acid and the peptide backbone of glycophorin A on erythrocytes (protein)
chain: ARNEYDIKENEKFLDVYKEKFNELDKKKYGNVQKTDKKIFTFIENKLDILNNSKFNKRWKSYGTPDNIDKNMSLINKHNNEEMFNNNYQSFLSTSSLIKQNKYVPINAVRVSRILSFLDSRINNGRNTSSNNEVLSNCREKRKGMKWDCKKKNDRSNYVCIPDRRIQLCIVNLSIIKTYTKETMKDHFIEASKKESQLLLKKNDNKYNSKFCNDLKNSFLDYGHLAMGNDMDFGGYSTKAENKIQEVFKGAHGEISEHKIKNFRKEWWNEFREKLWEAMLSEHKNNINNCKNIPQEELQITQWIKEWHGEFLLERDNRSKLPKSKCKNNTLYEACEKECIDPCMKYRDWIIRSKFEWHTLSKEYETQKVPKENAENYLIKISENKNDAKVSLLLNNCDAEYSKYCDCKHTTTLVKSVLNGNDNTIKEKREHIDLDDFSKFGCDKNSVDTNTKVWECKNPYILSTKDVCVPPRRQELCLGNIDRIYDKNLLMIKEHILAIAIYESRILKRKYKNKDDKEVCKIINKTFADIRDIIGGTDYWNDLSNRKLVGKINTNSKYVHRNKKNDKLFRDEWWKVIKKDVWNVISWVFKDKTVCKEDDIENIPQFFRWFSEWGDDYCQDKTKMIETLKVECKEKPCEDDNCKSKCNSYKEWISKKKEEYNKQAKQYQEYQKGNNYKMYSEFKSIKPEVYLKKYSEKCSNLNFEDEFKEELHSDYKNKCTMCPEVKDVPISIIRNNEQTSQEAVPEENTEIAHRTETPSISEGPKGNEQKERDDDSLSKISVSPENSRPETDAKDTSNLLKLKGDVDISMPKAVIGSSPNDNINVTEQGDNISGVNSKPLSDDVRPDKKELEDQNSDESEETVVNHISKSPSINNGDDSGSGSATVSESSSSNTGLSIDDDRNGDTFVRTQDTANTEDVIRKENADKDEDEKGADEERHSTSESLSSPEEKMLTDNEGGNSLNHEEVKEHTSNSDNVQQSGGIVNMNVEKELKDTLENPSSSLDEGKAHEELSEPNLSSDQDMSNTPGPLDNTSEETTERISNNEYKVNEREDERTLTKEYEDIVLKSHMNRESDDGELYDENSDLSTVNDESEDAEAKMKGNDTSEMSHNSSQHIESDQQKNDMKTVGDLGTTHVQNEISVPVTGEIDEKLRESKESKIHKAEEERLSHTDIHKINPEDRNSNTLHLKDIRNEENERHLTNQNINISQERDLQKHGFHTMNNLHGDGVSERSQINHSHHGNRQDRGGNSGNVLNMRSNNNNFNNIPSRYNLYDKKLDLDLYENRNDSTTKELIKKLAEINKCENEISVKYCDHMIHEEIPLKTCTKEKTRNLCCAVSDYCMSYFTYDSEEYYNCTKREFDDPSYTCFRKEAFSSMIFKFLITNKIYYYFYTYKTAKVTIKKINFSLIFFFFFSF
Binding to En(a-) erythrocytes (human erythrocytes; En(a-) erythrocytes, which lack glycophorin A): failed to bind
Binding to S-s-U- erythrocytes (human erythrocytes; S-s-U- erythrocytes that lacked glycophorin B): bound
Elution from Gerbich and normal erythrocytes (human erythrocytes; fresh Gerbich erythrocytes vs normal erythrocytes): eluted from both Gerbich and normal erythrocytes
Absorption from culture supernatant by Gerbich cells compared with normal erythrocytes (human erythrocytes; fresh blood from a person with the Gerbich mutation, two separate experiments): bound equally well to Gerbich and normal erythrocytes
Binding to neuraminidase-treated human erythrocytes (human erythrocytes; neuraminidase-treated erythrocytes, Dd2/Nm culture supernatant): failure of neuraminidase-and trypsin-treated erythrocytes to bind
Binding to Gerbich erythrocytes (human erythrocytes; pellet-frozen Gerbich (-2, -3, -4) erythrocytes): bound normally
Binding to Yus erythrocytes (human erythrocytes; pellet-frozen Yus (-2, -3, -4) erythrocytes): bound normally
Binding to trypsin-treated human erythrocytes (human erythrocytes; trypsin-treated erythrocytes, Dd2/Nm culture supernatant): failure of neuraminidase-and trypsin-treated erythrocytes to bind

B2: VSTK: BAEBL region II variant (aa 143-606) expressed in COS cells; V185, S239, T261, K285 (protein)
chain: TFIQKRTHLFACGIKRKSIKWICRENSEKITVCVPDRKIQLCVANFLNSRLETMEKFKEIFLISVNTEAKLLYNKNEGKDPSIFCNELRNSFSDFRSSFIGDDMDFGGNTDRVKGYINTKFSDYYKEKNVEKLNNIKKEWWEKNKANLWNHMIVNHKGNISKECAIIPAEEPQINLWIKEWNENFLMEKKRLFLNIKDKCVENKKYEACFGGCRLPCSSYTSFMKKSKTQMEVLTNLYKKKNSGVDKNNFLNDLFKKNNKNDLDDFFKNEKEYDDLCDCRYTATIIKSFLNGPAKNDVDIASQINVNDLRGFGCNYKSNNEKSWNCTGTFTNKFPGTCEPPRRQTLCLGRTYLLHRGHEEDYKEHLLGASIYEAQLLKYKYKEKDENALCSIIQNSYADLADIIKGSDIIKDYYGKKMEENLNKVNKDKKRNEESLKIFREKWWDENKENVWKVMSAVLKNKET
Binding to Gerbich-negative RBC as percentage of binding to normal, untreated RBC ([6]; Gerbich-negative RBC (exon 3 deletion of glycophorin C/D)): 0.9%
Binding to neuraminidase-treated normal RBC as percentage of binding to normal, untreated RBC ([6]; neuraminidase-treated normal RBC): 0%
Binding to normal RBC, untreated: COS cells with five or more attached RBC, total per coverslip ([6]; normal untreated RBC, region II (aa 143-606) expressed in COS cells): 65
Binding to trypsin-treated normal RBC as percentage of binding to normal, untreated RBC ([6]; trypsin-treated normal RBC): 0%

Source: patent US20050239730A1, “Plasmodium falciparum erythrocyte binding protein baebl for use as a vaccine” (priority 2001, published 2005)
